B1: EHEE_rd4_0086 (parent)
chain: EIHIRTNGEEQARKVYKMLAKRNYDVKIEQHNGQWVVTAS

Variants of: B1
Assay: folding stability dG (cDNA display proteolysis); higher = more stable
Details: PBS, room temperature

Variant	folding stability dG
EIHIRTNGEEQARKVYKMLAKRNYDVKWEQHNGQWVVTAS	0.131 kcal/mol
EIHIRTNGEEQARKVYKMLAKRNYDVKVEQHNGQWVVTAS	1.29 kcal/mol
EIHIRTNGEEQARKVYKMLAKRNYDVKQEQHNGQWVVTAS	-0.461 kcal/mol
EIHIRTNGEEQARKVYKMLAKRNYDVKREQHNGQWVVTAS	-0.747 kcal/mol
EIHIRTNGEEQARKVYKMLAKRNYDVKYEQHNGQWVVTAS	0.682 kcal/mol
EIHIRTNGEEQARKVYKMLAKRNYDVKKEQHNGQWVVTAS	-0.269 kcal/mol
EIHIRTNGEEQARKVYKMLAKRNYDVKTEQHNGQWVVTAS	-0.114 kcal/mol
EIHIRTNGEEQARKVYKMLAKRNYDVKLEQHNGQWVVTAS	1.56 kcal/mol
EIHIRTNGEEQARKVYKMLAKRNYDVKSEQHNGQWVVTAS	-0.437 kcal/mol
EIHIRTNGEEQARKVYKMLAKRNYDVKAEQHNGQWVVTAS	0.154 kcal/mol
EIHIRTNGEEQARKVYKMLAKRNYDVKFEQHNGQWVVTAS	0.516 kcal/mol
EIHIRTNGEEQARKVYKMLAKRNYDVKMEQHNGQWVVTAS	1.69 kcal/mol
EIHIRTNGEEQARKVYKMLAKTNYDVKIEQHNGQWVVTAS	1.16 kcal/mol
EIHIRTNGEEQARKVYKMLAKFNYDVKIEQHNGQWVVTAS	2.04 kcal/mol
EIHIRTNGEEQARKVYKMLAKPNYDVKIEQHNGQWVVTAS	-0.563 kcal/mol
EIHIRTNGEEQARKVYKMLAKLNYDVKIEQHNGQWVVTAS	2.45 kcal/mol
EIHIRTNGEEQARKVYKMLAKKNYDVKIEQHNGQWVVTAS	1.85 kcal/mol
EIHIRTNGEEQARKVYKMLAKQNYDVKIEQHNGQWVVTAS	1.76 kcal/mol
EIHIRTNGEEQARKVYKMLAKGNYDVKIEQHNGQWVVTAS	1.16 kcal/mol
EIHIRTNGEEQARKVYKMLAKANYDVKIEQHNGQWVVTAS	1.84 kcal/mol
EIHIRTNGEEQARKVYKMLAKVNYDVKIEQHNGQWVVTAS	1.01 kcal/mol

Variant	folding stability dG
EIHIRTNGEEQARKVYKMLAKMNYDVKIEQHNGQWVVTAS	2.32 kcal/mol
EIHIRTNGEEQARKVYKMLAKDNYDVKIEQHNGQWVVTAS	1.08 kcal/mol
EIHIRTNGEEQARKVYKMLAKNNYDVKIEQHNGQWVVTAS	1.45 kcal/mol
EIHIRTNGEEQARKVYKMLAKINYDVKIEQHNGQWVVTAS	1.31 kcal/mol
EIHIRTNGEEQARKVYKMLAKWNYDVKIEQHNGQWVVTAS	2.29 kcal/mol
EIHIRTNGEEQARKVYKMLAKSNYDVKIEQHNGQWVVTAS	1.37 kcal/mol
EIHIRTNGEEQARKVYKMLAKENYDVKIEQHNGQWVVTAS	1.29 kcal/mol
EIHIRTNGEEQARKVYKMLAKYNYDVKIEQHNGQWVVTAS	2.05 kcal/mol
EIHIRTNGEEQARKVYKMLAKHNYDVKIEQHNGQWVVTAS	1.86 kcal/mol
EIHIRTNGEEQARKVYKMLAKRTYDVKIEQHNGQWVVTAS	0.87 kcal/mol
EIHIRTNGEEQARKVYKMLAKRFYDVKIEQHNGQWVVTAS	2.79 kcal/mol
EIHIRTNGEEQARKVYKMLAKRVYDVKIEQHNGQWVVTAS	0.904 kcal/mol
EIHIRTNGEEQARKVYKMLAKRCYDVKIEQHNGQWVVTAS	2.9 kcal/mol
EIHIRTNGEEQARKVYKMLAKRPYDVKIEQHNGQWVVTAS	0.533 kcal/mol
EIHIRTNGEEQARKVYKMLAKRRYDVKIEQHNGQWVVTAS	1.68 kcal/mol
EIHIRTNGEEQARKVYKMLAKRIYDVKIEQHNGQWVVTAS	0.912 kcal/mol
EIHIRTNGEEQARKVYKMLAKREYDVKIEQHNGQWVVTAS	1.12 kcal/mol
EIHIRTNGEEQARKVYKMLAKRLYDVKIEQHNGQWVVTAS	1.74 kcal/mol
EIHIRTNGEEQARKVYKMLAKRSYDVKIEQHNGQWVVTAS	1.55 kcal/mol
EIHIRTNGEEQARKVYKMLAKRMYDVKIEQHNGQWVVTAS	1.89 kcal/mol
EIHIRTNGEEQARKVYKMLAKRAYDVKIEQHNGQWVVTAS	1.69 kcal/mol

Variant	folding stability dG
EIHIRTNGEEQARKVYKMLAKRWYDVKIEQHNGQWVVTAS	2.36 kcal/mol
EIHIRTNGEEQARKVYKMLAKRKYDVKIEQHNGQWVVTAS	1.68 kcal/mol
EIHIRTNGEEQARKVYKMLAKRHYDVKIEQHNGQWVVTAS	2.35 kcal/mol
EIHIRTNGEEQARKVYKMLAKRYYDVKIEQHNGQWVVTAS	2.86 kcal/mol
EIHIRTNGEEQARKVYKMLAKRDYDVKIEQHNGQWVVTAS	1.33 kcal/mol
EIHIRTNGEEQARKVYKMLAKRQYDVKIEQHNGQWVVTAS	1.67 kcal/mol
EIHIRTNGEEQARKVYKMLAKRGYDVKIEQHNGQWVVTAS	3.46 kcal/mol
EIHIRTNGEEQARKVYKMLAKRNYDVMIEQHNGQWVVTAS	1.32 kcal/mol
EIHIRTNGEEQARKVYKMLAKRNYDVDIEQHNGQWVVTAS	0.311 kcal/mol
EIHIRTNGEEQARKVYKMLAKRNYDVHIEQHNGQWVVTAS	1.66 kcal/mol
EIHIRTNGEEQARKVYKMLAKRNYDVEIEQHNGQWVVTAS	0.722 kcal/mol
EIHIRTNGEEQARKVYKMLAKRNYDVGIEQHNGQWVVTAS	0.682 kcal/mol
EIHIRTNGEEQARKVYKMLAKRNYDVAIEQHNGQWVVTAS	1.26 kcal/mol
EIHIRTNGEEQARKVYKMLAKRNYDVWIEQHNGQWVVTAS	1.52 kcal/mol
EIHIRTNGEEQARKVYKMLAKRNYDVTIEQHNGQWVVTAS	1.68 kcal/mol
EIHIRTNGEEQARKVYKMLAKRNYDVRIEQHNGQWVVTAS	1.95 kcal/mol
EIHIRTNGEEQARKVYKMLAKRNYDVQIEQHNGQWVVTAS	1.44 kcal/mol
EIHIRTNGEEQARKVYKMLAKRNYDVLIEQHNGQWVVTAS	1.12 kcal/mol
EIHIRTNGEEQARKVYKMLAKRNYDVFIEQHNGQWVVTAS	1.33 kcal/mol
EIHIRTNGEEQARKVYKMLAKRNYDVVIEQHNGQWVVTAS	1.45 kcal/mol
